This experiment has as its target KDM5B PHD1 finger (wild type) (human). As to the kind of experiment: other fluorescence titration.

On to “H3K4me0 peptide (aa 1-12 of H3) (from UniProt P68431 2-13)”, for which the Kd – broadly, the free concentration of one partner at which half of the binding sites on the other are occupied at equilibrium, for simple one-to-one binding – worked out at 1500 nM.

The record behind these values is article PMC3918441.
